{
  "source": "patent US20230242902A1",
  "about": "“A HIGHLY ERROR-PRONE […] R[…] FOR TARGETED CONTINUOUS EVOLUTION IN VIVO” (The Regents of the University of California, priority 2017, published 2023)",
  "key": {"p2-encoded leu2*": {"tested_on": "p2-encoded leu2*", "experiment": "p2 leu2* fluctuation tests in GA-Y021 (p2 mutation rate reporter strain)", "type": "cell-based, S. cerevisiae", "in_short": "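Yeast GA-Y021 carrying wt TP-DNAP2 plus variants in trans; replicate cultures grown 48 h at 30° C in pH 5.8 SC dropout, spot-plated on leucine-free medium, colonies counted after 5 days. m by p0 method (six replicates) or Ma-Sandri-Sarkar MLE (36–48 replicates), normalized to titer, p2 copy number (mKate2) and 2.33 bp target.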"}, "genomic URA3 locus": {"tested_on": "genomic URA3 locus", "experiment": "Fluctuation tests of genomically encoded URA3 in the presence of TP-DNAP2 variants (AR-Y436)", "type": "cell-based, S. cerevisiae", "experimental": "Fluctuation tests using genomically encoded URA3 were performed in the presence of TP-DNAP2 variants to determine the genomic per-base substitution rates, similarly to previously described protocols (Lang and Murray, 2008, Genetics, 178:67-82). AR-Y292 derived strains harboring the appropriate TP-DNAP2 variant encoded on a CEN6/ARS4 vector (with a HIS3 marker) were grown in liquid SC medium lacking uracil and histidine until saturation. Each strain was diluted 1:5,000 into SC medium lacking histidine and aliquoted into 48 replicates of 200 μL each. Cultures were grown for 48 hours at 30° C. to reach saturation. Saturated cultures were washed with 400 μL 0.9% NaCl and resuspended in 420 μL 0.9% NaCl. 400 μL from each replicate was spot plated on pre-dried solid SC medium lacking histidine and supplemented with 5-FOA (1 g/L). The residual 20 μL from six replicates were pooled, diluted, and plated on solid YPD medium to determine cell titers. Plates were allowed to dry before incubation at 30° C. Colonies were counted on titer plates after 2 days, and on spot plates after 5 days of growth. The expected number of mutants (m) was calculated using the MSS maximum likelihood estimator method via the FALCOR tool, and corrected for partial plating, as described above. To determine per-base substitution rates, the corrected m was normalized to the average cell titer, the URA3 copy number (1 in haploid yeast), and the target size for 5-FOA resistance via substitutions in URA3 (104 bp). 95% confidence intervals were similarly scaled.\nLike p1 replication by TP-DNAP1, p2 replication by TP-DNAP2 occurs in the cytoplasm via a protein-primed mechanism, making it likely that p2 replication is orthogonal to host genome replication. To test this, CEN6/ARS4 vectors lacking TP-DNAP2, or encoding codon optimized versions of TP-DNAP2^WT, TP-DNAP2^S370Q, or TP-DNAP2^Y424Q were transformed into AR-Y436. AR-Y436 contains wt p1 and p2, as well as an intact URA3 locus in the host genome. Genomic per-base substitution rates were determined via fluctuation tests based on the frequency of 5-FOA resistant clones arising from mutations in the genomic URA3 locus, as previously described (Ravikumar et al., 2014, Nature Chemical Biology, 10:175-177; Lang and Murray, 2008, Genetics, 178:67-82). The substitution rich spectrum of URA3-disabling mutations makes this assay ideal for detecting whether the elevated substitution rate of TP-DNAP2^S370Q or TP-DNAP2^Y424Q contributes to genomic mutation. No increase in the host genomic mutation rate was observed when error-prone variants of TP-DNAP2^S370Q and TP-DNAP2^Y424Q were present (Table 8)."}},
  "data": [
    {"molecule": "Y424Q: TP-DNAP2 variant (protein, listed as Kluyveromyces lactis) MNDELAFLNSQIDDYSDDIEFLRTEVFRINRYSKSIYSLMKNSSKEAIKETIEFNKYGQEIHSKIKEKEISLIEAIKLMEKKYKYLRSLNKTKDKSKKKKIHTKDIETLKTIYKTKADFDIRNFKNAETFTYENYSLLIPSEKELIDLIPEIEEDYSYYFYVSLTITGPTIFGGVTRKVPIIDTYGDINKDFYNKIKENITKVLDRVPFYEEKESEIICKKVLITLTVNKWESIDKWYKNVKSKSKKFKDFTLFLASDTSKNCVQQCVEYLGGKWNTNYSLEKMIPQQKIVTYIPLLMDIQYVQSMEDLISDFDEPNTDCKNIARLLKWNGHMGVITKIDKDVKINRIQRKRIIDVENKEVKEVFFDIESFSDETKHQIPYLICWSYLGELYYRTGKNCIKEFVEEILSYNVDIILYAWYGSGQDYQHVLPYMKSKCIKDKYIIKNNMITYGELYYENAIIYLKDPYLFILTSLDKASKAFNVINKGEFPHSIIHSWEDLNKILPNWVKIQKRMIEYKDDNKLNIYYKNIEIFENDRNYNTILENAIEYCKVDVLAMEKVWIKFKKLLEKNLNITVSVKTFTLSQLSMKIMESKLPKYVKLYVPTLEEYSKIRNAIYGGRVISKNGIYEENIVYADVVSLYPSAMKLLKHSYGKPKLVDYIDFEKHGIYRVTLLNKHDQEPKNYLNFVPRRINRKLTWEWFKIHEGWYHTYDLIIAKSEGFDIYCHEGFEYPEKDYIFNDFIDTLYSMKETHTACSCEEQPCPIRMVAKIALNGGGYGKFVQKPIDKEIYIVKRDVVAGECDKLQENENGEICIGKRLVKRPLFYNLDSENYDKMIIEKEDEPIYSTQCGISILSASRYRLYKLCKQFENIDIIYSDTDSIFVKQKSVDWELFKSKCGSELGQLDSTIDDTKNAIISKMYIGGAKMYAFEYLNNKNKLITKLHCKGVPNYMLSLNQFKYLMESPDNTIAYKFEIIRRKLVNVITKDLIKDIKQT", "values": [
      {"measurement": "fold increase of p2 mutation rate", "setting": "p2-encoded leu2*; GA-Y021, mutual orthogonality experiment, 48 replicates", "value": 16, "unit": "fold"},
      {"measurement": "Per-base substitution rate pf p2", "setting": "p2-encoded leu2*; TP-DNAP2 variant in trans, wt TP-DNAP2 in cis, 36 replicates, (95% C.I.)", "value": "77.5 (56.9-100) ×10^−10"},
      {"measurement": "Fold increase", "setting": "p2-encoded leu2*; p2 substitution rate over no variant in trans", "value": 13.0},
      {"measurement": "fold increase of p2 substitution mutation rate", "setting": "p2-encoded leu2*; reconfirmation, 36 replicates", "value": "~13", "unit": "fold"},
      {"measurement": "per-base substitution rate at genomic URA3 locus", "setting": "genomic URA3 locus; TP-DNAP2 in trans, AR-Y436, (95% C.I.)", "value": "1.8 (1.0-2.9) ×10^−10"},
      {"measurement": "host genomic mutation rate", "setting": "genomic URA3 locus; error-prone TP-DNAP2 variant present", "value": "No increase"}
    ]}
  ]
}
